This note sets out measurements from patent US20250222136A1, “GENE EDITING SYSTEM FOR TREATING USHER SYNDROME” (GenKOre, Inc., priority 2022, published 2025).

The subject of data set [1] is Target-1 (SEQ ID NO: 358), human endogenous DNA target site. The experiment in a line: Indel efficiency of CWCas12f1 gene editing system with engineered gRNAs, target sequence 1. Format: cell-based. The protocol: (§1) To this end, each of the modification site MS3 to MS5 in the canonical sgRNA was further subdivided into three sections (see FIG. 2A). By combining one or more of these modifications, engineered gRNAs (see Table 10 in Example 1.2.1) were produced, and the indel activity for each of them was tested. As target sequences for comparing the indel efficiency, two types of human endogenous DNA target sites comprising the PAM sequence recognized as the cleavage site by the CWCas12f1 protein were identified and used, and the specific nucleotide sequences are provided in Table 12 below.
(§2) Next, to obtain a highly efficient engineered single guide RNA for the CWCas12f1 protein, 5′-[…]uuagGGGAUUA […]gaaaGAAUGAAGGAAUGCAA […]-3′ (SEQ ID NO: 337), which is a mature form (hereinafter referred to as ‘MF’) sgRNA, and engineered gRNAs having partial modifications in the nucleotide sequence of the MF sgRNA were produced (see Table 11), and the indel efficiency of the CWCas12f1 gene editing system caused by them was measured.
(§3) Meanwhile, the comparative experiment of indel efficiency of the engineered Cas12f1 proteins in Examples 1.2.2 and 1.2.3 was performed as follows.
(§4) One day before transfection, HEK293T cells, which had been grown in 24-well plates to 80-90% confluency (based on 100φ dishes), were diluted 1/100 and passaged to prepare a volume of 500 μl. A total of 2 μg of DNA (vector+sgRNA transcription cassette targeting DY10) was used per transfection well. The experiment was repeated twice for each group. A transfection mixture was prepared which contains 1.5 μg of plasmid encoding the wild-type Cas12f1 or the engineered Cas12f1, 0.5 μg of the sgRNA transcription cassette, 200 μl of DMEM (excluding FBS and antibiotics), and 6 μl of FuGENE (Promega) reagent.
(§5) DNA and DMEM containing FuGENE reagent were mixed and vortexed, and then incubated for 15 minutes. 200 μl of the thus prepared transfection mixture was used to treat the cells prepared in a 24-well plate, and incubated at 37° C. […]
(§6) Indel frequency was calculated using MAUND provided at ┌https://github.com/ibs-cge/maund┘.

Data set [2] relates to Target-2 (SEQ ID NO: 359), human endogenous DNA target site. The data set can be described thus: Indel efficiency of CWCas12f1 gene editing system with engineered gRNAs, target sequence 2. Format: cell-based. The procedure: as §1, §2, §3, §4, §5, §6

B1: Canonical sgRNA: canonical (wild-type, full length) single guide RNA for Cas12f1, SEQ ID NO: 177 (nucleic acid)
guide: CUUCACUGAUAAAGUGGAGAACCGCUUCACCAAAAGCUGUCCCUUAGGGGAUUAGAACUUGAGUGAAGGUGGGCUGCUUGCAUCAGCCUAAUGUCGAGAAGUGCUUUCUUCGGAAAGUAACCCUCGAAACAAAUUCAUUUUUCCUCUCCAAUUCUGCACAAGAAAGUUGCAGAACCCGAAUAGACGAAUGAAGGAAUGCAACNNNNNNNNNNNNNNNNNNNN
modifications: Canonical sgRNA for Cas12f1; misc_feature 203..222 n is a, c, g or u
In the case of B1, the indel efficiency result in data set [1] (CWCas12f1 protein, Target-1 (SEQ ID NO: 358), gRNAs engineered from canonical sgRNA, FIG. 3A) was “did not cause cleavage of the target strand”; in data set [2] (CWCas12f1 protein, Target-2 (SEQ ID NO: 359), gRNAs engineered from canonical sgRNA, FIG. 3B), “did not cause cleavage of the target strand”.

B2: MS3-3/MS4-3: MF-based engineered sgRNA, SEQ ID NO: 347 (nucleic acid)
guide: ACCGCUUCACCAAAAGCUGUCCCUUAGGGGAUUAGAACUUGAGUGAAGGUGGGCUGCUUGCAUCAGCCUAAUGUCGAGAAGUGCUUUCUUCGGAAAGUAACCCUCGAAACAAAGAAAGGAAUGCAACNNNNNNNNNNNNNNNNNNNN
modifications: Mature form sgRNA with modification of MS3-3/MS4-3; misc_feature 128..147 n is a, c, g or u
Regarding B2, the indel efficiency entry is on record as “about 60%” in data set [1] (CWCas12f1, Target-1, MF-based gRNA with U-rich tail (U4AU4) added to the 3′-end (MS2), FIG. 4B); “about 40%” in data set [1] (CWCas12f1, Target-1, gRNAs engineered from mature form (MF) sgRNA, no U-rich tail, FIG. 4A); “about 50%” in data set [2] (CWCas12f1, Target-2, MF-based gRNA with U-rich tail (U4AU4) added to the 3′-end (MS2), FIG. 4D); “about 20%” in data set [2] (CWCas12f1, Target-2, gRNAs engineered from mature form (MF) sgRNA, no U-rich tail, FIG. 4C).
